We go through 38 variants from the Human Domainome abundance scans (Beltran et al. 2025).

B1: SAM and SH3 domain-containing protein 1, residues 630 to 700; numbered along this chain, O94885 (parent)
chain: GRPPQPKSVEDLLDRINLKEHMPTFLFNGYEDLDTFKLLEEEDLDELNIRDPEHRAVLLTAVELLQEYDSN

± gives the uncertainty stated by the source.

In the data set the parent is B1. Nature of the data set: abundance fitness (aPCA) (normalised: wild type 0, dead -1); higher = more abundant; growth selection in yeast, the domain comes from the species named. The settings on record: Homo sapiens.
Consider GRPPQPKSVEDLLDRINLKEHMPTFLFNGYEDLDTFKLLEEEDLDELNIRDPEHRHVLLTAVELLQEYDSN [A56H], for which the abundance fitness was -0.057 ± 0.037.
The same measure for GRPPQPKSVEDLLDRINLKEHMPTFLFNGYEDLDTFKLLEEEDLDELNIRDPEHRDVLLTAVELLQEYDSN [A56D]: -0.096 ± 0.046; for GRPPQPKSVEDLLDRINLKEHMPTFLFNGYEDLDTFKLLEEEDLDELNIRDPEHRLVLLTAVELLQEYDSN [A56L]: -0.334 ± 0.035; for GRPPQPKSVEDLLDRINLKEHMPTFLFNGYEDLDTFKLLEEEDLDELNIRDPEHRPVLLTAVELLQEYDSN [A56P]: -0.772 ± 0.053.
On to GRPPQPKSVEDLLDRINLKEHMPTFLFNGYEDLDTFKLLEEEDLDELNIRDPEHRCVLLTAVELLQEYDSN [A56C], for which the abundance fitness was -0.272 ± 0.046.
The same measure for GRPPQPKSVEDLLDRINLKEHMPTFLFNGYEDLDTFKLLEEEDLDELNIRDPEHRGVLLTAVELLQEYDSN [A56G]: -0.337 ± 0.05.
GRPPQPKSVEDLLDRINLKEHMPTFLFNGYEDLDTFKLLEEEDLDELNIRDPEHREVLLTAVELLQEYDSN [A56E]: the abundance fitness turned out to be 0.085 ± 0.05.
The same measure for GRPPQPKSVEDLLDRINLKEHMPTFLFNGYEDLDTFKLLEEEDLDELNIRDPEHRNVLLTAVELLQEYDSN [A56N]: -0.108 ± 0.04.
For GRPPQPKSVEDLLDRINLKEHMPTFLFNGYEDLDTFKLLEEEDLDELNIRDPEHRKVLLTAVELLQEYDSN [A56K], the abundance fitness amounted to 0.265 ± 0.038.
With GRPPQPKSVEDLLDRINLKEHMPTFLFNGYEDLDTFKLLEEEDLDELNIRDPEHRMVLLTAVELLQEYDSN [A56M], the abundance fitness was -0.213 ± 0.046.
The same measure for GRPPQPKSVEDLLDRINLKEHMPTFLFNGYEDLDTFKLLEEEDLDELNIRDPEHTAVLLTAVELLQEYDSN [R55T]: -0.89 ± 0.083; for GRPPQPKSVEDLLDRINLKEHMPTFLFNGYEDLDTFKLLEEEDLDELNIRDPEHQAVLLTAVELLQEYDSN [R55Q]: -0.5 ± 0.071.
Consider GRPPQPKSVEDLLDRINLKEHMPTFLFNGYEDLDTFKLLEEEDLDELNIRDPEHVAVLLTAVELLQEYDSN [R55V], for which the abundance fitness is -0.591 ± 0.057.
The same measure for GRPPQPKSVEDLLDRINLKEHMPTFLFNGYEDLDTFKLLEEEDLDELNIRDPEHCAVLLTAVELLQEYDSN [R55C]: -0.888 ± 0.087.
The same measure for GRPPQPKSVEDLLDRINLKEHMPTFLFNGYEDLDTFKLLEEEDLDELNIRDPEHYAVLLTAVELLQEYDSN [R55Y]: -0.935 ± 0.093; for GRPPQPKSVEDLLDRINLKEHMPTFLFNGYEDLDTFKLLEEEDLDELNIRDPEHWAVLLTAVELLQEYDSN [R55W]: -1.14 ± 0.14.
For GRPPQPKSVEDLLDRINLKEHMPTFLFNGYEDLDTFKLLEEEDLDELNIRDPEHSAVLLTAVELLQEYDSN [R55S] the value was -0.731 ± 0.06; for GRPPQPKSVEDLLDRINLKEHMPTFLFNGYEDLDTFKLLEEEDLDELNIRDPEHNAVLLTAVELLQEYDSN [R55N], -0.891 ± 0.086.
As to GRPPQPKSVEDLLDRINLKEHMPTFLFNGYEDLDTFKLLEEEDLDELNIRDPEHDAVLLTAVELLQEYDSN [R55D], the abundance fitness is -0.77 ± 0.085.
The same measure for GRPPQPKSVEDLLDRINLKEHMPTFLFNGYEDLDTFKLLEEEDLDELNIRDPEHAAVLLTAVELLQEYDSN [R55A]: -0.9 ± 0.082; for GRPPQPKSVEDLLDRINLKEHMPTFLFNGYEDLDTFKLLEEEDLDELNIRDPEHFAVLLTAVELLQEYDSN [R55F]: -0.864 ± 0.093; for GRPPQPKSVEDLLDRINLKEHMPTFLFNGYEDLDTFKLLEEEDLDELNIRDPEHPAVLLTAVELLQEYDSN [R55P]: -0.895 ± 0.087.
Turning to GRPPQPKSVEDLLDRINLKEHMPTFLFNGYEDLDTFKLLEEEDLDELNIRDPEHEAVLLTAVELLQEYDSN [R55E], the abundance fitness is -0.522 ± 0.081.
In the case of GRPPQPKSVEDLLDRINLKEHMPTFLFNGYEDLDTFKLLEEEDLDELNIRDPEHGAVLLTAVELLQEYDSN [R55G], the abundance fitness was -1.02 ± 0.086.
The same measure for GRPPQPKSVEDLLDRINLKEHMPTFLFNGYEDLDTFKLLEEEDLDELNIRDPEHMAVLLTAVELLQEYDSN [R55M]: -0.896 ± 0.1; for GRPPQPKSVEDLLDRINLKEHMPTFLFNGYEDLDTFKLLEEEDLDELNIRDPEHLAVLLTAVELLQEYDSN [R55L]: -1.01 ± 0.071.
For GRPPQPKSVEDLLDRINLKEHMPTFLFNGYEDLDTFKLLEEEDLDELNIRDPEHIAVLLTAVELLQEYDSN [R55I] the value was -0.696 ± 0.078; for GRPPQPKSVEDLLDRINLKEHMPTFLFNGYEDLDTFKLLEEEDLDELNIRDPEQRAVLLTAVELLQEYDSN [H54Q], 0.059 ± 0.048.
For GRPPQPKSVEDLLDRINLKEHMPTFLFNGYEDLDTFKLLEEEDLDELNIRDPETRAVLLTAVELLQEYDSN [H54T] the value was -0.093 ± 0.045; for GRPPQPKSVEDLLDRINLKEHMPTFLFNGYEDLDTFKLLEEEDLDELNIRDPESRAVLLTAVELLQEYDSN [H54S], -0.408 ± 0.04.
As for GRPPQPKSVEDLLDRINLKEHMPTFLFNGYEDLDTFKLLEEEDLDELNIRDPEYRAVLLTAVELLQEYDSN [H54Y], the abundance fitness is -0.857 ± 0.074.
The same measure for GRPPQPKSVEDLLDRINLKEHMPTFLFNGYEDLDTFKLLEEEDLDELNIRDPEMRAVLLTAVELLQEYDSN [H54M]: -0.501 ± 0.064; for GRPPQPKSVEDLLDRINLKEHMPTFLFNGYEDLDTFKLLEEEDLDELNIRDPENRAVLLTAVELLQEYDSN [H54N]: -0.635 ± 0.064; for GRPPQPKSVEDLLDRINLKEHMPTFLFNGYEDLDTFKLLEEEDLDELNIRDPEPRAVLLTAVELLQEYDSN [H54P]: -0.733 ± 0.066.
The same measure for GRPPQPKSVEDLLDRINLKEHMPTFLFNGYEDLDTFKLLEEEDLDELNIRDPEVRAVLLTAVELLQEYDSN [H54V]: -0.189 ± 0.037.
For GRPPQPKSVEDLLDRINLKEHMPTFLFNGYEDLDTFKLLEEEDLDELNIRDPELRAVLLTAVELLQEYDSN [H54L] the value was -0.849 ± 0.055.
In the case of GRPPQPKSVEDLLDRINLKEHMPTFLFNGYEDLDTFKLLEEEDLDELNIRDPERRAVLLTAVELLQEYDSN [H54R], the abundance fitness is -0.823 ± 0.053.
For GRPPQPKSVEDLLDRINLKEHMPTFLFNGYEDLDTFKLLEEEDLDELNIRDPEWRAVLLTAVELLQEYDSN [H54W] the value was -0.96 ± 0.09.
